Measured values: patent publication US20020155114A1 (published 2002)

B1: scFv 1C6 (scFv)
scFv: QIQLLQSGGGVVQPGRSLRLSCAASGFTFSSYAMHWVRQAPGKGLEWVAVISYDGSNKYYADSVKGRFTISRDNSKNTLYLQMNSLRAEDTAVYYCARDWSEGYYYYGMDVWGQGTTVIVSSGGGGSGGGGSGGGGSDIELTQSPASLAVSLGRRATTSCRASESVEYYGTSLMQWYQQKPGQPPKLLIYAASNVESGVPARFSGSGSGTDFSLNIHPVEEEDIAMYFCQQSRKVPWTFGGGTKLEIKR
B2: scFv C25 (scFv)
scFv: QVQLQESGGGLVKPGGSLKLSCAASGFTFSDYYMYWVRQTPEKRLEWVATISDGGSYTYYPDSVKGRFTISRDNAKNNLYLQMSSLKSEDTAMYYCSRYRYDDAMDYWGQGTTVTVSSGGGGSGGGGSGGGGSDIELTQSPASLAVSLGQRATISCRASESVDSYGHSFMQWYQQKPGQPPKLLIYRASNLEPGIPARFSGSGSGTDFTLTINPVEADDVATYYCQQSNEDPFTFGSGTKLEIKR
B3: scFv 1F3 (scFv)
scFv: EVQLQQSGAELVKPGASVKLSCKASGYTFTSFWMHWVKQAPGRGLEWIGRLDPNSGETKYNEKFKSKATLTVDKPSSTAYMELSSLTSEDSAVYYCAREAYGYWNFDVWGTGTTVTVSSGGGGSGGGGSGGGGSDIELTQSPASMSASPGEKVTMTCRATSSVSSSYLHWYQQKSGASPKLWIYSASNLASGVPSRFSGSGSGTSYSLTISSVEAEDAATYYCQQYIGYPYTFGGGTKLEIKR
B4: scFv S25 (scFv)
scFv: QVKLQQSGAELVRPGASVKLSCKASGYSLTSYWMNWVKQRPGQGLEWIGMIHPSDSDTRFNQKFEDKATLTVDTSSSTAYMQLSSPTSEDSAVYYCARGLYNGFWYFDVWGQGTTVTVSSGGGGSGGGGSGGGGSDIELTQSPALMAASPGEKVIITCSVSSSISSSNLHWYQQKSGTSPKPWIYGTSNLASGVPVRFSGSGSGTSYSLTISSMEAEDAATYYCQQWSSYPLTFGAGTKLEIKR

Key:
[1] = molecular target: T1, BoNT/A Hc (C-terminal domain of botulinum neurotoxin type A heavy chain, binding domain) (Clostridium botulinum (type A serotype), UniProt P0DPI0 860-1296)
T1 sequence (P0DPI0 860-1296): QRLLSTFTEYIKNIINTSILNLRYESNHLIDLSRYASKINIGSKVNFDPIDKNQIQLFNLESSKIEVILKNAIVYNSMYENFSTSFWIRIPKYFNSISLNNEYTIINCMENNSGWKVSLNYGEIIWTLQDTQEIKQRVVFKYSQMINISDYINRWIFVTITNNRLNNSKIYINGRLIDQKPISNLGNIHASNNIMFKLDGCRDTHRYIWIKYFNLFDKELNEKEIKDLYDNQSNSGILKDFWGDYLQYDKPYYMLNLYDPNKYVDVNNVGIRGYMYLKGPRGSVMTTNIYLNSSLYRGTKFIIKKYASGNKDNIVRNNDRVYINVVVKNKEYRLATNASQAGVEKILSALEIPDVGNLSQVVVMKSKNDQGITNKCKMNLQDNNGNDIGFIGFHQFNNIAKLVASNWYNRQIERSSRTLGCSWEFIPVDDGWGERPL

[2] = molecular target: T1, BoNT/A Hc (C-terminal domain of …); assay: SPR (BIAcore), BoNT/A Hc coupled to CM5 chip, purified scFv in flow
[3] = molecular target: botulinum neurotoxin type A (BoNT/A), pure holotoxin (Clostridium botulinum (type A serotype), UniProt P0DPI0 2-1296); assay: cell-based or functional assay
Chain of botulinum neurotoxin type A (BoNT/A), pure holotoxin (P0DPI0 2-1296 limits assumed): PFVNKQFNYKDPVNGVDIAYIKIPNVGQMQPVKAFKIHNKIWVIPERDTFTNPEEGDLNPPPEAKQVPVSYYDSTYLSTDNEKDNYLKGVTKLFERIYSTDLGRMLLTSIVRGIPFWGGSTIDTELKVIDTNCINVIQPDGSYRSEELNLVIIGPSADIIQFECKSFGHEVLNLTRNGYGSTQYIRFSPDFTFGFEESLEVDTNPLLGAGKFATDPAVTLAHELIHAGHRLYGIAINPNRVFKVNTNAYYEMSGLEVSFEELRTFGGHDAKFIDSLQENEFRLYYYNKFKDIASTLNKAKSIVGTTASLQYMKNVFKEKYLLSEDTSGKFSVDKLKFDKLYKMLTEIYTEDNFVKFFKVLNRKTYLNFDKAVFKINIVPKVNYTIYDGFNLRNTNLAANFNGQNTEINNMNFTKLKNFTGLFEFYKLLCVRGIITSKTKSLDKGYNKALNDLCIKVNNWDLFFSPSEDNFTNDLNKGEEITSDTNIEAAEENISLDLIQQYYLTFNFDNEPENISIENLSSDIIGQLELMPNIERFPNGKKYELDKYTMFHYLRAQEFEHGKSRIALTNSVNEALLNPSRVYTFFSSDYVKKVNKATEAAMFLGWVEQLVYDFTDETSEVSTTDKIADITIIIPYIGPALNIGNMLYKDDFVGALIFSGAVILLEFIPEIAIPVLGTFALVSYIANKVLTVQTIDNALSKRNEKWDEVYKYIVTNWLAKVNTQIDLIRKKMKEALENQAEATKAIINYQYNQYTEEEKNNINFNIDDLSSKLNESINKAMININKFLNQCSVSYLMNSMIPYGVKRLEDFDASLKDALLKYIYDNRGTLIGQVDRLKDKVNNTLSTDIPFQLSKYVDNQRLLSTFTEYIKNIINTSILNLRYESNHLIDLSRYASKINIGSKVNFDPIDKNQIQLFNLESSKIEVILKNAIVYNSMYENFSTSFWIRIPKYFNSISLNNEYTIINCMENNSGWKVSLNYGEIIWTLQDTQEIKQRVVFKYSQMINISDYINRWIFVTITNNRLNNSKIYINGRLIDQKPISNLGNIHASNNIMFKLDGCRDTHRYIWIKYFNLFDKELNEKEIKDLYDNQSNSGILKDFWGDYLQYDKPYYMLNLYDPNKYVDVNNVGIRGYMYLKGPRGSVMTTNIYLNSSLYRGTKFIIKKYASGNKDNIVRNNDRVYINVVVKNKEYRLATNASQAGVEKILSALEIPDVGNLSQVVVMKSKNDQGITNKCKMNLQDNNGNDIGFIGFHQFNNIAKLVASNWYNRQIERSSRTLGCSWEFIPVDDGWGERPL

Row | Binder | Kd [1] [nM] | koff [2] [s⁻¹] | kon [2] [M⁻¹ s⁻¹] | prolongation of the time to neuroparalysis (against BoNT/A alone) [3] [fold]
1 | B1 | 20 | 0.0025 | 130000 | 
2 | B2 |  |  |  | 2.7
3 | B3 | 12 | 0.011 | 920000 | 
4 | B4 | 73 | 0.00082 | 11000 | 1.5
